Source: patent US20250296984A1, “THERAPEUTIC AND DIAGNOSTIC AGENTS AND USES THEREOF” (priority 2022, published 2025)

How the values were obtained:
Assay in all cases: HuProt Human Proteome Microarray, off-target human proteins
Format in all cases: binding
Parameters in all cases: key to Z Score: Z = (F635 − mean F635 of all spots) / SD; average of duplicate spots; key to S Score: difference between this protein's Z score and the next-ranked protein's
[1] = test system: human proteins on HuProt Human Proteome Microarray
Text: (§1) The HuProt™ Human Proteome Microarray provides the largest number of unique, full-length, individually purified human proteins on a single microscope slide. It provides >21,000 unique human proteins, isoform variants, and protein fragments—covering 16,794 unique genes. This includes 15,889 of the 19,613 canonical human proteins described in the Human Protein Atlas, with broad coverage across protein subclasses. This allows thousands of interactions to be profiled in a high-throughput manner. The full-length recombinant proteins are expressed in the yeast S. cerevisiae, purified, and printed on glass slides in duplicate along with a set of control proteins (GST, BSA, histones, IgG, etc.). The full list of the different proteins included in the HuProt™ Human Proteome Microarray as used in this Example is provided as “List B” in the Research Disclosures publication (ISSN 0374-4353, Questel Ireland Ltd) with database numbers 707018, 707019 and 707020, each entitled “Large scale protein arrange target protein identities” and each digitally published on 27 Jan. 2023, the contents of each of which are incorporated herein by reference in their entirety, fo the purposes of the disclosure of the proteins defined by “List B”. “List B” begins in Research Disclosures publication 707018, is continued in Research Disclosures publication 707019, and concludes Research Disclosures publications 707020, and so the three publications are to be read consecutively as a single disclosure of the “List B” proteins. The HuProt™ microarray is not restricted to a particular type of surface coating, although the default is glass coated with ultrathin nitrocellulose film for the non-covalent, yet irreversible, capture of active proteins to the surface.
(§2) Samples of humanised 7B1F3 and mouse 7B1F3 antibodies were analysed for binding specificities on HuProt™ human proteome arrays. A peptide with the sequence TDVLNQSKPVTL (“Peptide 3”) was added to the arrays at 0.1 mg/ml as a control.
(§3) After blocking, the arrays were probed with the antibody samples (0.1 μg/ml) at room temperature for 1 hour. Then the arrays were washed with TBST for 10 min×3 and probed with Alexa647-anti-human IgG Fc or Alexa647-anti-mouse IgG secondary antibodies under conditions optimized by CDI Labs for signal detection.
(§4) • Non-specific hits that directly bind to the secondary antibodies were eliminated from the analysis of the samples. • CDI software was used to quantify the specificity of each individual sample to specific proteins on the array based on Z Scores. • Z score is the average Z score of the duplicate spots of a given protein (each protein is printed in duplicate on a HuProt™ array). The Z score of each spot on a given array is calculated according to the algorithm below:
(§5) Z=[F635−F635(avg)]/F635(std) • F635(avg) and F635(std) are the average and standard deviation of the F635 values of all spots on the array, respectively. • S score is the difference of the Z Scores of a given protein and the one ranked next to it. If the S score of the top hit is >3, the antibody is considered to be highly specific for the top hit. • F635 is the average foreground signal intensity of 2 replicate spots of a given protein in the detection channel (635 nm). • B635 is the average background signal intensity of 2 replicate spots of a given protein in the detection channel (635 nm).

[2] = molecular target: T1, human proteins on HuProt Human Proteome Microarray (Homo sapiens, UniProt Q96F63); details: Protein: CCDC97
T1 construct: purchased CDI Labs (HuProt); host or cells: yeast S. cerevisiae
T1 sequence (Q96F63 1-343): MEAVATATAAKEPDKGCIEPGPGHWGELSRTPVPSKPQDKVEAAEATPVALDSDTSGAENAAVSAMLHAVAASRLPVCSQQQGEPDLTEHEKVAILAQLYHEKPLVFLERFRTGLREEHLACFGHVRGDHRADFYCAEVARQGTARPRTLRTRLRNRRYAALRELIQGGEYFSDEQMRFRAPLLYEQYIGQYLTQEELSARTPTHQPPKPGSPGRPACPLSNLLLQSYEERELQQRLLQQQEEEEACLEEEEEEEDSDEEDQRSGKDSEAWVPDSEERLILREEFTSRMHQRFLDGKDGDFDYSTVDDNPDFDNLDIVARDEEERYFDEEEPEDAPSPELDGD
Text: as §1, §2, §3, §4, §5

[3] = molecular target: T2, human proteins on HuProt Human Proteome Microarray (Homo sapiens, UniProt Q9UK22); details: Protein: FBXO2
T2 construct: purchased CDI Labs (HuProt); host or cells: yeast S. cerevisiae
T2 sequence (Q9UK22 1-296): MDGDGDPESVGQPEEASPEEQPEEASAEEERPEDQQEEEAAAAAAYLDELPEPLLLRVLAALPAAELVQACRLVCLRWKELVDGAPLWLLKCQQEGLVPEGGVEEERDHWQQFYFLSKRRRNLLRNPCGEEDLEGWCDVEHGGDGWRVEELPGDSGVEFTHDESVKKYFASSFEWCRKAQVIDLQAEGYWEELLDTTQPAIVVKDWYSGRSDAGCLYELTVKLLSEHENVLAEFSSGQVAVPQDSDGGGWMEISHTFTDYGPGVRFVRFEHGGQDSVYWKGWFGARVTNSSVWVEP
Text: as §1, §2, §3, §4, §5

B1: 7B1F3: mouse IgG1 kappa antibody against US28 ECD1 Peptide-N; VH SEQ ID NO: 211, VL SEQ ID NO: 213 (antibody, V domains shown)
VH: EVQLQQSGAELAKPGASVKMSCKASGYTFTNYWMHWVKQRPGQGLEWIGYVNPRTGYTEYNQKFKDKATLTADKSSRTAYMQLSSLTSEDSAVYSCARILNGTGFAYWGQGTLVTVSA
VL: DIVLTQSPSSLTVSVGEKFTMSCKSSQSLLYSSNQKNYLAWYQQKPGQSPKLLIYWASTRESGVPDRFTGSGSGTDFTLAISSVKPEDLAIYYCQQYYSFPLTFGAGTKLEIK
modifications: Mature form of VH sequence of 7B1F3, without the leader sequence; Mature form of VL sequence of 7B1F3, without the leader sequence
In the case of B1, the F635 ([1]; Protein: AGAP2) is reported as 10020.5, the “S Score” value ([1]; Protein: AGAP2) is reported as 15.511 and the “Z Score” value ([1]; Protein: AGAP2) is reported as 28.997. For the same molecule, the “S Score” value ([1]; Protein: BYSL) was 0.378, the “S Score” value ([1]; Protein: CCDC97) was 0.353 and the F635 ([1]; Protein: DNAJB2) was 3312. The “S Score” value ([1]; Protein: DNAJB2) was 0.235, the “Z Score” value ([1]; Protein: DNAJB2) was 9.502 and the F635 ([1]; Protein: EXD2) was 2701.5. The “S Score” value ([1]; Protein: EXD2) was 1.271, the “Z Score” value ([1]; Protein: EXD2) was 7.728 and the “S Score” value ([1]; Protein: FBXO2) was 2.911. For the same molecule, the “S Score” value ([1]; Protein: LASP1) was 1.073, the F635 ([1]; Protein: SYNCRIP) was 2264 and the “S Score” value ([1]; Protein: SYNCRIP) was 0.157. The “Z Score” value ([1]; Protein: SYNCRIP) was 6.457, the F635 ([1]; Protein: TRIM33) was 3231 and the “S Score” value ([1]; Protein: TRIM33) was 1.539. The “Z Score” value ([1]; Protein: TRIM33) was 9.267, the F635 [2] was 2080 and the “Z Score” value [2] was 5.922. The F635 [3] was 4683 and the “Z Score” value [3] was 13.486.
